From PMC12700824
Blank lines part the entries; values can stand above or below the binder they belong to.

Columns and labels:
[1] = target: FAM118B-L32R, full length, tagged with mEGFP or with mCherry, Q9BPY3; assay: FCCS (fluorescence cross-correlation spectroscopy) in living U2OS cells; conditions: chain shown with the change; mEGFP-F122R (green label) coexpressed with mCherry-L32R (red label); n = 15 cells per condition; read off a plot
[2] = target: FAM118B-F122R, full length, tagged with mEGFP or with mCherry, Q9BPY3; assay: as above; conditions: chain shown with the change, n = 15 cells per condition, read off a plot

response [1]: 88%
B1: mEGFP–FAM118B WT (full-length human FAM118B fused at its N terminus to mEGFP), Q9BPY3 binder:F122R; target:L32R (protein)
chain: MASTGSQASDIDEIFGFFNDGEPPTKKPRKLLPSLKTKKPRELVLVIGTGISAAVAPQVPALKSWKGLIQALLDAAIDFDLLEDEESKKFQKCLHEDKNLVHVAHDLIQKLSPRTSNVRSTRFKDCLYEVFDDLESKMEDSGKQLLQSVLHLMENGALVLTTNFDNLLELYAADQGKQLESLDLTDEKKVLEWAQEKRKLSVLHIHGVYTNPSGIVLHPAGYQNVLRNTEVMREIQKLYENKSFLFLGCGWTVDDTTFQALFLEAVKHKSDLEHFMLVRRGDVDEFKKLRENMLDKGIKVISYGDDYADLPEYFKRLTCEISTRGTSAGMVREGQLNGSSAAHSEIRGCST

response ([2]; mEGFP-L32R (green label) coexpressed with mCherry-F122R (red label)): 90%
B2: mEGFP–FAM118B WT (full-length human FAM118B fused at its N terminus to mEGFP), Q9BPY3 binder:L32R; target:F122R (protein)
chain: MASTGSQASDIDEIFGFFNDGEPPTKKPRKLRPSLKTKKPRELVLVIGTGISAAVAPQVPALKSWKGLIQALLDAAIDFDLLEDEESKKFQKCLHEDKNLVHVAHDLIQKLSPRTSNVRSTFFKDCLYEVFDDLESKMEDSGKQLLQSVLHLMENGALVLTTNFDNLLELYAADQGKQLESLDLTDEKKVLEWAQEKRKLSVLHIHGVYTNPSGIVLHPAGYQNVLRNTEVMREIQKLYENKSFLFLGCGWTVDDTTFQALFLEAVKHKSDLEHFMLVRRGDVDEFKKLRENMLDKGIKVISYGDDYADLPEYFKRLTCEISTRGTSAGMVREGQLNGSSAAHSEIRGCST

response ([2]; mEGFP-F122R (green label) coexpressed with mCherry-F122R (red label)): 6%
B3: mEGFP–FAM118B WT (full-length human FAM118B fused at its N terminus to mEGFP), Q9BPY3 binder:F122R; target:F122R (protein)
chain: MASTGSQASDIDEIFGFFNDGEPPTKKPRKLLPSLKTKKPRELVLVIGTGISAAVAPQVPALKSWKGLIQALLDAAIDFDLLEDEESKKFQKCLHEDKNLVHVAHDLIQKLSPRTSNVRSTRFKDCLYEVFDDLESKMEDSGKQLLQSVLHLMENGALVLTTNFDNLLELYAADQGKQLESLDLTDEKKVLEWAQEKRKLSVLHIHGVYTNPSGIVLHPAGYQNVLRNTEVMREIQKLYENKSFLFLGCGWTVDDTTFQALFLEAVKHKSDLEHFMLVRRGDVDEFKKLRENMLDKGIKVISYGDDYADLPEYFKRLTCEISTRGTSAGMVREGQLNGSSAAHSEIRGCST
